This note sets out measurements from article PMC5792912.

Common to all, as to type: in vitro ADME
Substrate in series [1]: O=c1cc(-c2ccccc2)c2ccc(O)c(O)c2o1
The experiment in a line: Methylation kinetics in pooled human liver cytosol (HLC). Particulars: other: HLC 0.5 mg/ml, substrate 0.1–40 µM, 5 min; best-fit value ± s.e.; pH 7.4. The protocol: (§1) Reaction mixtures were pre-incubated at 37°C for 5 min and initiated by the addition of SAM to a final concentration of 0.4 mM. The samples were incubated for a certain period of time and the reaction was terminated by the addition of 200 µl ice-cold acetonitrile and then centrifuged at 20 000g, 4°C, for 20 min. Control incubations were performed either without human liver cytosol, or without SAM or without substrate. The supernatants were subjected to ultra-fast liquid chromatography (UFLC) coupled with a diode array detector (DAD) and an electrospray ionization (ESI) mass spectrometer (MS) analyzer.
(§2) 7,8-DHCs and their methylated conjugates were analysed by a UFLC spectrometry system (Shimadzu, Kyoto, Japan), equipped with two LC-20AD pumps, a DGU-20A3 vacuum degasser, a SIL-20ACHT auto-sampler, a CTO-20AC column oven, an SPD-M 20A DAD, a CBM-20A communications bus module, a mass detector (2010EV) with an ESI interface and a computer equipped with UFLC-MS SOLUTION v. 3.41 software. A Shimadzu ODS (75.0 × 2.0 mm, 3 µm) analytical column was used to separate 7,8-DHCs and their methylated conjugates. Column temperature was kept at 40°C. […] The methylation samples were stable over 72 h at 4°C. 7,8-DHC methylation was quantified by the standard curves of the methylated conjugates at the detector wavelength of 325 nm, which were linear from 0.01 to 10 µM (the correlation coefficient was 0.999).
(§3) For estimating kinetic parameters, 7,8-DHCs (0.1–40 µM) were incubated with pooled HLC and S-COMT. 7,8-DHCs (0.1–40 µM) were incubated with HLC or S-COMT for 5 min, using a microsomal protein concentration of 0.5 mg ml^−1 or 0.002 mg ml^−1 for HLC and S-COMT, respectively. Kinetic constants for 7,8-DHCs methylation by HLC and S-COMT were obtained by fitting the Michaelis–Menten kinetics equation (3.1) to experimental data.
(§4) For the Michaelis–Menten kinetic model, 3.1 v=Vmax×[S]/Km+[S], where v is the rate of reaction, [S] is the substrate concentration, Vmax is the maximum velocity estimate and Km is the apparent affinity constant.
(§5) All incubations were performed in duplicate. Kinetic constants were obtained using GraphPad PRISM 6 (GraphPad Software, Inc. La Jolla, CA) software.

Substrate in series [2]: Cc1cc(=O)oc2c(O)c(O)ccc12
Described as above. Particulars: other: HLC 0.5 mg/ml, substrate 0.1–40 µM, 5 min; best-fit value ± s.e.; pH 7.4. On the procedure: as §1, §2, §3, §4, §5

Substrate in series [3]: O=c1ccc2ccc(O)c(O)c2o1
The series is described as above. Particulars: other: HLC 0.5 mg/ml, substrate 0.1–40 µM, 5 min; best-fit value ± s.e.; pH 7.4. On the procedure: as §1, §2, §3, §4, §5

Substrate in series [4]: O=C(O)Cc1cc(=O)oc2c(O)c(O)ccc12
The description is as above. Particulars: other: HLC 0.5 mg/ml, substrate 0.1–40 µM, 5 min; best-fit value ± s.e.; pH 7.4. The protocol:
as §1, §2, §3, §4, §5

Substrate in series [5]: O=c1cc(-c2ccccc2)c2ccc(O)c(O)c2o1
The experiment in a line: Methylation kinetics with recombinant human soluble COMT. Particulars: other: S-COMT 0.002 mg/ml, substrate 0.1–40 µM, 5 min; best-fit value ± s.e.; pH 7.4. On the procedure: as §1, §2, §3, §4, §5

Substrate in series [6]: Cc1cc(=O)oc2c(O)c(O)ccc12
The series is described as above. Particulars: other: S-COMT 0.002 mg/ml, substrate 0.1–40 µM, 5 min; best-fit value ± s.e.; pH 7.4. The protocol: as §1, §2, §3, §4, §5

Substrate in series [7]: O=c1ccc2ccc(O)c(O)c2o1
Described as above. Particulars: other: S-COMT 0.002 mg/ml, substrate 0.1–40 µM, 5 min; best-fit value ± s.e.; pH 7.4. The protocol:
as §1, §2, §3, §4, §5

Substrate in series [8]: O=C(O)Cc1cc(=O)oc2c(O)c(O)ccc12
The series is described as above. Particulars: other: S-COMT 0.002 mg/ml, substrate 0.1–40 µM, 5 min; best-fit value ± s.e.; pH 7.4. The protocol:
as §1, §2, §3, §4, §5

B1: COMT in HLC (Homo sapiens) (protein)
chain: MGDTKEQRILNHVLQHAEPGNAQSVLEAIDTYCEQKEWAMNVGDKKGKIVDAVIQEHQPSVLLELGAYCGYSAVRMARLLSPGARLITIEINPDCAAITQRMVDFAGVKDKVTLVVGASQDIIPQLKKKYDVDTLDMVFLDHWKDRYLPDTLLLEECGLLRKGTVLLADNVICPGAPDFLAHVRGSSCFECTHYQSFLEYREVVDGLEKAIYKGPGSEAGP
notes: Pooled human liver cytosol (HLC) from seven male donors; tissue Research Institute for Liver Diseases (Shanghai, China) Lot; QROX; host or cells: pooled human liver cytosol, seven male donors
As usually defined, the Km is the substrate concentration at which the rate is half of its maximum. Consider B1, for which the Michaelis constant (Km) in series [1] worked out at 0.089 ± 0.015 µM; in series [2], 0.20 ± 0.029 µM; in series [3], 0.21 ± 0.036 µM; in series [4], 7.52 ± 0.64 µM.

B2: recombinant human soluble COMT (S-COMT) (Homo sapiens) (protein)
chain: B1 chain
notes: made in house
Take B2: the Km in series [5] came to 0.22 ± 0.034 µM; in series [6], 1.07 ± 0.10 µM; in series [7] it was 0.48 ± 0.071 µM; in series [8], 7.93 ± 1.31 µM.
